Numbering of substitutions follows the chain as printed.
B1: ADI-18981 (antibody, V domains shown)
VH: EVQLQESGSRLVKPSQTLSLTCSVSGGSLNAGGYLWSWIRQPPGKGLEWVGYIYPSGTTYYNPSLQSRISISQDRSRNQFSLSVASVTAADTAVYYCARCGNEYGEVHPFDIWGQGTTVTVSS
VL: EIVLTQSPGTLSLSPGERATLSCRGSPIVGNNYLAWYQQKPGQAPRLLIYAASIRATGIPDRFSGSGSGTDFTLTISRLEPEDFAVYYCQQYGSSPWTFGQGTKVDIK
notes: full-length IgG; also called Antibody Number 329
B2: ADI-18989 (antibody, V domains shown)
VH: EVQLVESGGGLVQPGGSLRLSCAASGFSFNTYSMNWVRQAPGKGLEWLSFISSSSHTLYYADSVKGRFTVFRDNAKHSLFLQMNGLRDEDTAVYFCARSLGSGNYDNEDQTFYYYYGMDVWGQGTTVTVSS
VL: ETTLTQSPLSLPVTPGEPASISCRSSQSLLFHSNGHNYLDWYLQKPGQSPQLLIHLGSNRASGVPDRFSGSGSGTDFTLKISRVEPEDVGVYYCMQALQTPYTFGQGTKVEIK
notes: full-length IgG
B3: ADI-18980 (antibody, V domains shown)
VH: QVQLVQSGAEVKKPGESLKISCKGFGYSFNSYWIAWVRQMPGKGLECMGIIYPGDSDTRYSPSFQGQVTISVDKSITTAYLQWSSLKVSDTAMYYCAKSNVGNTGWNYWGQGTLVTVSS
VL: EIVLTQSPATLSLSPGERATLSCRASHSVATDLAWYQQKPGQAPRLLIYDASKRATDVPARFSGSGSGTDFTLTISSLEPEDVAVYYCQEVRNWPPCTFGQGTKVDIK
notes: full-length IgG; also called Antibody Number 328
B4: ADI-18984 (antibody, V domains shown)
VH: QVQLQESGPGLVKPSETLSLTCTVSGASVTTNTYYWTWIRQPPGKELEWIGYIHHTGNTHYNPSLESRLTMSLDTSRNQFSLNLRSATTADTAVYYCARGEHFAYWWGNWGQGALVTVSS
VL: DIRVTQSPSSVSASVGDRVTITCRASQGIARWLAWYQQKPGKAPKLLIYAASSLQGGVPSRFSGSGYGTDFTLTISSLQPEDFATYYCQQANSFPRTFGQGTKVEIK
notes: full-length IgG
B5: ADI-18968 (antibody, V domains shown)
VH: EVQLVESGPGLVKPSQTLSLTCTVSDVLISSGDYYWSWIRQSPGKGLEWLGYIYYTGKTKYNPSLESRITMSVDTSKNQFSLRLSSVTAADTAVYFCTRDLGYSTSSPSFYYGMDVWGQGTTVTVSS
VL: EIVLTQSPATLSLSPGERATLSCRASQSVGTYLAWYQQKPGQAPRLLIYDASYRVTGIPARFSASGSATDFTLTISSLEPEDFAVYFCQQRTNWPITFGQGTRLEIK
notes: full-length IgG from yeast
B6: ADI-18947 (antibody, V domains shown)
VH: QVQLVQSGGGVVQSGRSLRLSCAASGFTFSDNGMHWVRQAPGKGLEWVAGIFHDGSNKQYAESVKGRFIISRDNSKNTLYLQMNSLRAEDTALYFCARAPYDIWSGYCLDYWGQGTLVTVSS
VL: DIRMTQSPATLSLSPGESATLSCRASQSVINNLAWYQQRPGQAPRLLIYGASTRATGIPARFSGSGSETEFTLTISSLQSEDFAVYHCQQYSIWPQTFGQGTKLEIK
notes: full-length IgG from yeast
B7: ADI-18896 (antibody, V domains shown)
VH: B6 VH with Q1E, V5L, Q6E, H53Y, E62D, I69T, N77S, L93V, F95Y
VL: B6 VL with R3Q, S7T, L13M, S18R, I30N
notes: full-length IgG from yeast
B8: ADI-18948 (antibody, V domains shown)
VH: EVQLLESGGGVVQSGRSLRLSCVASGFTFSDSGMHWVRQAPGKGLEWVAGLFYDGSNKQYADSVKGRFTISRDNSKSTLYLQMNSLRAEDTAVYYCARAPYDIWSGYCLDYWGQGTLVTVSS
VL: B6 VL with D1E, R3V, M4L, S12Y, L13M, S18R, I30N
notes: full-length IgG from yeast; also called Antibody Number 300; Ab # 300
B9: ADI-18899 (antibody, V domains shown)
VH: B8 VH with L5V, V23A, S32N, L51I
VL: B6 VL with M4L, L13M, S18R, I30N, L104V, E105D
notes: full-length IgG from yeast
B10: ADI-18955 (antibody, V domains shown)
VH: B8 VH with L5V, V23A, T28I, S32N, L51I, S77N, N84K
VL: B6 VL with R3Q, M4V, L13M, S18R, I30N, L104V
notes: full-length IgG from yeast; also called Antibody Number 306; Ab # 306
B11: ADI-18924 (antibody, V domains shown)
VH: QVQLVQSGAEVKKPGESLKISCQGSGYSFSSFWIVWVRQMPGKGLEWMGSIYPGDSDTRYTPSFQGQVTISADKSTSTAYLQWNSLKPSDTAMYYCARCSLSCDYYGVNLWGQGTTVTVSS
VL: QSVVTQPPSVSGAPGQRVTISCSGSSSNIGARSDVHWYQQLPGKAPKLLIYGNTNRPLGVPDRFSGSTSGTSASLAISGLQAEDEGYYYCQSYDSSLSGFYVFGTGTKLTVL
notes: full-length IgG from yeast
B12: ADI-18942 (antibody, V domains shown)
VH: QVQLQESGPGRVKPSQTLSLTCTVSGVSVTINDYYWTWLRQSPGKGLEWIGNIYNSGSTYQNPSLQSRVTMSVDTAKNHFSLKLTSVTAADTAVYYCARDLGTANNYYFGMDVWGLGTTVTVSS
VL: EIVMTQSPATLSLSPGERATLSCRASQSVSTYLAWYQQKPGQAPRLLIYNGSNRVTGTPARFSGSGSGTDFTLTISSVEPEDFAVYYCQQRSNWPPYTFGQGTKVEIK
notes: full-length IgG from yeast; also called Antibody Number 295; Ab # 295
B13: ADI-18938 (antibody, V domains shown)
VH: EVQLLESGGGLVQPGGSLRLSCAASGFTFSNYWMHWVRQAPGKGLVWVSRISGDGSDTTYADSVEGRFTISRDNARSTLYLQLNSLTGDDTAVYYCARDLWTTSPYFDLWGQGTLVTVSS
VL: EIVLTQSPGTLSASIGDRVTITCRASQSLNGWLAWYQQKPGKAPRLLIYKSSSLESGVPSRFSGSASGTEFTLTISSLQPDDFATYYCQQYNSWAFGQGTKVDVK
notes: full-length IgG from yeast; also called Antibody Number 291; Ab # 291
B14: ADI-18946 (antibody, V domains shown)
VH: QVQLVQSGGGVVQPGRSLRLSCAASGFTFSDYAMHWVRQAPGKGLEWVAIISYDANNKYYADSVKGRFTISRDNSKNTVYLQMNSLRPEDTAVYYCAKEEWLVPAYWGQGILVTVSS
VL: QSVLTQPASVSGSPGQSITISCTGTSSDVGGYNYVSWYQQHPGKAPKLLIYEVSNRPSGVSNRFSGSKSGNTASLTISGLQPEDEADYYCSSYSTNSAPFGTGTKLTVL
notes: full-length IgG from yeast
B15: ADI-18922 (antibody, V domains shown)
VH: QVQLQESGPGRVKPSETLSLTCSVADGSISSGHYYWGWVRQPPGKGLEWIATIHDSGATYYNPSLQSRVTISVDTSKNQFSLKVNSVTAADTAVYYCASRRGSGWFFDSWGQGTLVTVSS
VL: DIVLTQSPATLSVSPGERVTLSCRASHSVNYNLAWYQQKPGQAPRLLIYGSSTRATGLPARFSGSGSGTEFTLTISSLQSEDFAIYYCQQYNNWPPGGTFGQGTKVEIK
notes: full-length IgG from yeast; also called Antibody Number 276; Ab # 276
B16: ADI-18876 (antibody, V domains shown)
VH: QVQLQESGPGLVKPSQTLSLTCTVSGPSISSGDYYWTWIRQPPGKGLEWIGYIYNSGSTDYNPSLKSRITMSLDRSKNQFSLNLSSVTAADTAVYFCARDVGTLVLPTVAYYYGMDVWGQGTTVTVSS
VL: EIVLTQSPGTLSLSPGERATLSCRASESISSSYLAWYQQKPGQAPRLLIYDASSRATGIPDRFSGSGSGTDFTLTISSLEPEDFAVYYCQQYGSSPLVTFGPGTKVDIK
notes: full-length IgG from yeast

Each binder was assayed against RSV F protein of subtype A (strain A2) on recombinant mKate-RSV (respiratory syncytial virus subtype A …, UniProt P03420 26-574) (assay: cell-based or functional assay).

Binder	Neut IC50 subtype A [µg/mL]
B1	> 10
B2	> 10
B3	3.6
B4	> 10

What follows are binders tested against RSV F protein of subtype A (strain A2) on recombinant mKate-RSV virus (Respiratory syncytial virus subtype A …, UniProt P03420 26-574) (assay: cell-based or functional assay).

Binder	Neut IC50 (µg/ml) subtype A [µg/mL]
B5	0.909
B6	1.3
B7	1.1
B8	1.12
B9	0.742
B10	1.93
B11	0.572
B12	0.374
B13	0.837
B14	0.093
B15	> 10
B16	0.037

The binders below were run against RSV F protein of subtype B (18537) on recombinant mKate-RSV virus (Respiratory syncytial virus subtype B …, UniProt P13843 26-574) (assay: cell-based or functional assay).

Binder	Neut IC50 (µg/ml) subtype B [µg/mL]
B5	0.541
B6	3.6
B7	4.72
B8	4.35
B9	2.7
B10	3.12
B11	1.07
B12	0.614
B13	4.25
B14	0.227
B15	5.05
B16	0.179

What follows are binders tested against RSV F protein of subtype B (18537) on recombinant mKate-RSV (respiratory syncytial virus subtype B …, UniProt P13843 26-574) (assay: cell-based or functional assay).

Binder	Neut IC50 subtype B [µg/mL]
B1	> 10
B2	> 10
B3	> 10
B4	> 10

What follows are binders tested against T1, RSV F ectodomain stabilized in the postfusion conformation (F ΔFP), subtype B (respiratory syncytial virus subtype B, UniProt P13843 26-109; P13843 147-524) (assay: BLI (Octet), IgG on AHQ sensor, 100 nM antigen).
T1 construct: extracellular domain; Trimer; also called Postfusion subtype B

Binder	Kd [nM]
B1	0.28
B2	0.377
B3	0.35
B4	0.659

What follows are binders tested against T2, RSV F subtype A, furin-cleaved ectodomain stabilized in the postfusion conformation (F ΔFP) (Respiratory syncytial virus subtype A, UniProt P03420 26-109; P03420 147-524) (assay: BLI, IgG on AHQ sensor, 100 nM antigen).
T2 construct: extracellular domain; Trimeric soluble antigen; also called Postfusion subtype A

Binder	Kd [nM]
B5	0.438
B6	0.296
B7	0.279
B8	0.257
B9	0.266
B10	0.256
B11	0.411
B12	0.281
B13	0.216
B14	0.206
B15	0.322
B16	1.71

What follows are binders tested against T3, RSV F subtype B, furin-cleaved ectodomain stabilized in the prefusion conformation (DS-Cav1) (Respiratory syncytial virus subtype B) (assay: BLI, IgG on AHQ sensor, 100 nM antigen).
T3 construct: extracellular domain; Trimeric soluble antigen; also called Prefusion subtype B

Binder	Kd [nM]
B5	0.602
B6	2.2
B7	1.81
B8	2.1
B9	1.59
B10	2.37
B12	0.512
B13	0.15
B14	0.157
B15	5.27
B16	0.316

What follows are binders tested against T4, RSV F subtype A, furin-cleaved ectodomain stabilized in the prefusion conformation (DS-Cav1) (Respiratory syncytial virus subtype A, UniProt P03420 26-524) (assay: BLI, IgG on AHQ sensor, 100 nM antigen).
T4 construct: extracellular domain; Trimeric soluble antigen; also called Prefusion subtype A

Binder	Kd [nM]
B5	1.98
B6	2.45
B7	2.27
B8	4.55
B9	1.92
B10	0.599
B11	6.48
B12	0.865
B13	0.165
B14	0.158
B15	3.47
B16	0.707

What follows are binders tested against T5, RSV F subtype B, furin-cleaved ectodomain stabilized in the postfusion conformation (F ΔFP) (Respiratory syncytial virus subtype B) (assay: BLI, IgG on AHQ sensor, 100 nM antigen).
T5 construct: extracellular domain; Trimeric soluble antigen; also called Postfusion subtype B

Binder	Kd [nM]
B5	0.305
B6	0.282
B7	0.27
B8	0.247
B9	0.251
B10	0.25
B11	0.321
B12	0.258
B13	0.168
B14	0.166
B15	0.287
B16	0.179
